The results in this text go back to US6001988, “High affinity nucleic acid ligands to lectins” (NeXstar Pharmaceuticals, Inc.).

For orientation: Kd means the free concentration of one partner at which half of the binding sites on the other are occupied at equilibrium, for simple one-to-one binding. A high value points to a looser complex.

The target in data set [1] is T1, L-selectin (LS-Rg) (Homo sapiens, UniProt P14151 P14151:39-332).
T1 chain: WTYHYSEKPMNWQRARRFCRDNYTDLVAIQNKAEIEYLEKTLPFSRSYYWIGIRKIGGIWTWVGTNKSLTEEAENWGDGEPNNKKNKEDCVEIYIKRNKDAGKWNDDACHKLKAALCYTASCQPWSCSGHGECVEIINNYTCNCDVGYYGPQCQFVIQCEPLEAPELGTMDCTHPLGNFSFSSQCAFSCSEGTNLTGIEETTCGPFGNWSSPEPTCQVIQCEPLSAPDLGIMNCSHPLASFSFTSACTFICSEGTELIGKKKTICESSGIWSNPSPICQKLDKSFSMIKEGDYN
Nature of the data set: filter; 4 C, HSMC; 75 nM at room temp. Conditions: tags: human IgG2 Fc fusion (provided by A. Varki); label: 32P; hairpin. The method, then:
(§1) As described in SELEX Patent Applications, the nitrocellulose filter partitioning method was used to determine the affinity of RNA ligands for LS-Rg and for other proteins. Filter discs (nitrocellulose/cellulose acetate mixed matrix, 0.45 um pore size, Millipore) were placed on a vacuum manifold and washed with 2 ml of HSMC buffer under vacuum. Reaction mixtures, containing ^32P labeled RNA pools and unlabeled LS-Rg, were incubated in HSMC for 10–20 min at 4° C., room temperature or 37° C., filtered, and then immediately washed with 4 ml HSMC at the same temperature. The filters were air-dried and counted in a Beckman LS6500 liquid scintillation counter without fluor.
(§2) The dissociation constants for representative ligands from rounds 13 and 14, including all orphans, were determined by nitrocellulose filter binding experiments and are listed in Table IX. These calculations assume two RNA ligand binding sites per chimera. The affinity of random RNA cannot be reliably determined but is estimated to be approximately 10 µM.

Data set [2] concerns the target T2, E-selectin (ES-Rg) (Homo sapiens, UniProt P16581 P16581:22-556).
T2 chain: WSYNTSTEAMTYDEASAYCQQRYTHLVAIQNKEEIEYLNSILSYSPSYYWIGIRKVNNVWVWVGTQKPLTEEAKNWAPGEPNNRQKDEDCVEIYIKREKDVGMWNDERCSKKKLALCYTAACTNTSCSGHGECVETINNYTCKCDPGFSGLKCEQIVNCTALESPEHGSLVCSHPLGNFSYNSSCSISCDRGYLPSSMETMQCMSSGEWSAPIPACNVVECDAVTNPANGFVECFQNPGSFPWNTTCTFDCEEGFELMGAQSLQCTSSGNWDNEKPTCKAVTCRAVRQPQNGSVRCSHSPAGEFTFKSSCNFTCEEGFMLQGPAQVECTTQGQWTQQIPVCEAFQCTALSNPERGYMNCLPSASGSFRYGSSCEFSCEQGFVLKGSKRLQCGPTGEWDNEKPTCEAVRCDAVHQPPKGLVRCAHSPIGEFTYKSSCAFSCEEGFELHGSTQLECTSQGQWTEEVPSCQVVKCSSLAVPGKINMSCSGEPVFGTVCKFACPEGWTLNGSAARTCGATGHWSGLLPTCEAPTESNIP
Nature of the data set: filter; 4 C, HSMC. Conditions: tags: human IgG1 Fc fusion (provided by A. Varki), chain copies: 2, label: 32P. The method, then: as §1
(§3) The affinity of L-selectin ligands to ES-Rg, PS-Rg and CD22β-Rg were determined by nitrocellulose partitioning. […] In general, a ligand's affinity for ES-Rg is 10^3-fold lower and that for PS-Rg is about 10^4-fold less than for LS-Rg. […] The specificity of oligonucleotide ligand binding contrasts sharply with the binding of cognate carbohydrates by the selectins and confirms the assertion that SELEX ligands will have greater specificity than carbohydrate ligands.
(§4) *Dissociation constants were determined at 4° C. in HSMC buffer.

Data set [3] deals with T1, L-selectin (LS-Rg). Nature of the data set: filter; 4 C, HSMC; 18 nM at room temp. Particulars: tags: human IgG2 Fc fusion (provided by A. Varki); label: 32P. On the procedure: as §1, §2
Data set [4] addresses T1, L-selectin (LS-Rg). Nature of the data set: filter; 4 C, HSMC. Conditions: tags: human IgG2 Fc fusion (provided by A. Varki); label: 32P; no stem. On the procedure: as §1, §2
Data set [5] addresses T3, P-selectin (PS-Rg) (Homo sapiens, UniProt P16109 P16109:42-321).
T3 chain: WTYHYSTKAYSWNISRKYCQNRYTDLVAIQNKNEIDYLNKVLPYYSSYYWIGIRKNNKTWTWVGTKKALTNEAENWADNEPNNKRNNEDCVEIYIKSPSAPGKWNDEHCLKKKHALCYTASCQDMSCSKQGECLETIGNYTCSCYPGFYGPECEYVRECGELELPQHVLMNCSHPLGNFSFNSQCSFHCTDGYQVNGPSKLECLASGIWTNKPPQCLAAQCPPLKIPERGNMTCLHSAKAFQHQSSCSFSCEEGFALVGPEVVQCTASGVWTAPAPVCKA
The data set is described as follows: filter; 4 C, HSMC. Particulars: tags: human IgG1 Fc fusion (provided by A. Varki); chain copies: 2; label: 32P; hairpin. On the procedure: as §1, §3, §4

Data set [6] has as its target T1, L-selectin (LS-Rg). Nature of the data set: filter; 4 C, HSMC; 14.9 nM at room temp. Conditions: tags: human IgG2 Fc fusion (provided by A. Varki); label: 32P; hairpin. The method, then:
as §1, §2

For data set [7], the target named is T1, L-selectin (LS-Rg). Nature of the data set: filter; 4 C, HSMC; 15.9 nM at room temp. Conditions: tags: human IgG2 Fc fusion (provided by A. Varki); label: 32P; hairpin. On the procedure:
as §1, §2

For data set [8], the target named is T4, wheat germ agglutinin (WGA) (Triticum vulgare, UniProt P10968 P10968:27-197).
T4 sequence: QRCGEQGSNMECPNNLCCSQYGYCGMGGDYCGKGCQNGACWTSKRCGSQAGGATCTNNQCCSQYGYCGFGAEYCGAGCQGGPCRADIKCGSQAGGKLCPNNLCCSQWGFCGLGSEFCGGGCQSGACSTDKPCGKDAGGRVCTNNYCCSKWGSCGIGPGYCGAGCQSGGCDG
The data set is described as follows: filter; HBSS, room temp; 19.2 nM in Table IV. Particulars: tags: free lectin, E Y Laboratories; label: 32P; hairpin. On the procedure: (§5) The specifically eluted fraction was processed for use in the following round. Fractions eluted from immobilized WGA were heated at 90° C. for 5 minutes in 1% SDS, 2% β-mercaptoethanol and extracted with phenol/chloroform. RNA was reverse transcribed into cDNA by AMV reverse transcriptase at 48° C. for 60 min in 50 mM Tris-Cl pH (8.3), 60 mM NaCl, 6 mM Mg(OAc)_2, 10 mM DTT, 100 pmol DNA primer, 0.4 mM each of dNTPs, and 0.4 unit/µl AMV RT. […] C) Nitrocellulose Filter Partitioning As described in SELEX Patent Applications, the nitrocellulose filter partitioning method was used to determine the affinity of RNA ligands for WGA and for other proteins. Filter discs (nitrocellulose/cellulose acetate mixed matrix, 0.45 µm pore size, Millipore; or pure nitrocellulose, 0.45 µm pore size, Bio-Rad) were placed on a vacuum manifold and washed with 4 ml of HBSS buffer under vacuum. Reaction mixtures, containing ^32P labeled RNA pools and unlabeled WGA, were incubated in HBSS for 10 min at room temperature, filtered, and then immediately washed with 4 ml HBSS. The filters were air-dried and counted in a Beckman LS6500 liquid scintillation counter without fluor. WGA is a homodimer, molecular weight 43.2 kD, with 4 GlcNAc binding sites per dimer. For affinity calculations, we assume one RNA ligand binding site per monomer (two per dimer). […]

The target in data set [9] is T1, L-selectin (LS-Rg). The data set is described as follows: filter; 4 C, HSMC; 9.2 nM at room temp. Particulars: tags: human IgG2 Fc fusion (provided by A. Varki); label: 32P; hairpin. The method, then: as §1, §2
The target in data set [10] is T1, L-selectin (LS-Rg). The data set is described as follows: filter; 4 C, HSMC; 15.4 nM at room temp. Conditions: tags: human IgG2 Fc fusion (provided by A. Varki); label: 32P; hairpin. The method, then: as §1, §2
In data set [11] the target is T1, L-selectin (LS-Rg). The data set is described as follows: filter; room temp, Ca/Mg; 160 pM at 37 C. Conditions: tags: human IgG2 Fc fusion (provided by A. Varki); label: 32P; hairpin.
Data set [12] deals with T3, P-selectin (PS-Rg). Nature of the data set: filter; room temp. Particulars: tags: human IgG1 Fc fusion (provided by A. Varki); chain copies: 2; label: 32P; hairpin. On the procedure: as §5, with “RNA” for “The specifically eluted fraction was processed for use in the following round. Fractions eluted from immobilized WGA were heated at 90° C. for 5 minutes in 1% SDS, 2% β-mercaptoethanol and extracted with phenol/chloroform. RNA”, “dimer). The monomer concentration is defined as 2 times the dimer concentration.” for “dimer).”
(§6) The affinity of representative cloned ligands for LS-Rg, ES-Rg, PS-Rg, CD22β-Rg and WGA was determined by nitrocellulose partitioning and the results shown in Table XIV. […]
(§7) *Kds were determined at room temperature.

Data set [13] deals with T2, E-selectin (ES-Rg). The data set is described as follows: filter; room temp. Conditions: tags: human IgG1 Fc fusion (provided by A. Varki); chain copies: 2; label: 32P; hairpin. On the procedure: as §5, with “RNA” for “The specifically eluted fraction was processed for use in the following round. Fractions eluted from immobilized WGA were heated at 90° C. for 5 minutes in 1% SDS, 2% β-mercaptoethanol and extracted with phenol/chloroform. RNA”, “dimer). The monomer concentration is defined as 2 times the dimer concentration.” for “dimer).”
as §6, §7

B1: F13.57 (ssRNA)
RNA: GGGAGGACGAUGCGGUAACAUAAAGUAGCGCGUCUGUGAGAGGAAGUGCCUGGAUCAGACGACUCGCCCGA
modifications: 2'-NH2 all C and U
With B1, the dissociation constant (Kd) amounted to 3 nM with L-selectin (LS-Rg) [1] and 2700 nM with E-selectin (ES-Rg) [2] (hairpin).

B2: F13.51 (ssRNA)
RNA: GGGAGGACGAUGCGGAUGUAAAUCUAGGCAGAAACGUAGGGCAUCCACCGCAACGACAGACGACUCGCCCGA
modifications: 2'-NH2 all C and U
With B2, the results for the Kd with L-selectin (LS-Rg) [3] and with E-selectin (ES-Rg) [2] were 8.8 nM and 2000 nM, respectively.

B3: F14.25 (ssRNA)
RNA: GGGAGGACGAUGCGGUAGAGGUAGUAUGUGUGGGAGAUGAAAAUACUGUGGAAAGCAGACGACUCGCCCGA
modifications: 2'-NH2 all C and U
For B3, in the data set with L-selectin (LS-Rg) [4], the Kd turned out to be 1300 nM.

B4: F13.32 (ssRNA)
RNA: GGGAGGACGAUGCGGCGCGUAUGUGUGAAAGCGUGUGCACGGAGGCGUCUACAAUCAGACGACUCGCCCGA
modifications: 2'-NH2 all C and U
Take B4: the Kd in the data set with P-selectin (PS-Rg) [5] stood at 17000 nM; with L-selectin (LS-Rg) [6] it was 15.7 nM.

B5: F14.21 (ssRNA)
RNA: GGGAGGACGAUGCGGUUGAGAUGUGUGAGUACAAGCUCAAAAUCCCGUUGGAGGCAGACGACUCGCCCGA
modifications: 2'-NH2 all C and U
On to B5, for which the Kd is 2.3 nM with L-selectin (LS-Rg) [7] and 2600 nM with E-selectin (ES-Rg) [2] (hairpin).

B6: 11.24 (ssRNA)
RNA: GGGAAAAGCGAAUCAUACACAAGACGGCUGUGUGGUGUUGGAGCGUCAUAGUAGGAGUCGUCACGAACCAAGGCGCUCCGCCAGAGACCAACCGAGAA
modifications: 2'-NH2 all C and U
B6 registered a Kd in [8] of 19.4 nM.

B7: F13.48 (ssRNA)
RNA: GGGAGGACGAUGCGGAAAGUUAUGAGUCCGUAUAUCAAGGUCGACAUGUGUGAAUCAGACGACUCGCCCGA
modifications: 2'-NH2 all C and U
On to B7, for which the dissociation constant (Kd) with P-selectin (PS-Rg) [5] amounted to 720 nM; in the data set with L-selectin (LS-Rg) [9] it was 15.9 nM.

B8: F14.9 (ssRNA)
RNA: GGGAGGACGAUGCGGAAACCUUGAUGUGUGAUAGAGCAUCCCCCAGGCGACGUACCAGACGACUCGCCCGA
modifications: 2'-NH2 all C and U
In the data set with L-selectin (LS-Rg) [10], B8 registered a Kd of 8.2 nM.

B9: 227 (ssDNA)
DNA: CTACCTACGATCTGACTAGCCGGACATGAGCGTTACAAGGTGCTAAACGTAACGTACTTGCTTACTCTCATGTAGTTCC
For B9, the values for the Kd with L-selectin (LS-Rg) [11], with P-selectin (PS-Rg) [12] and with E-selectin (ES-Rg) [13] were 0.043 nM, 560 nM and 33 nM, respectively.
